Data from patent US9340577.
“And” between values parts separate entries of the source, which are not always exact repeats. Identical values can stand only once.

T1: H-2Kd (mouse)
T1 chain 1: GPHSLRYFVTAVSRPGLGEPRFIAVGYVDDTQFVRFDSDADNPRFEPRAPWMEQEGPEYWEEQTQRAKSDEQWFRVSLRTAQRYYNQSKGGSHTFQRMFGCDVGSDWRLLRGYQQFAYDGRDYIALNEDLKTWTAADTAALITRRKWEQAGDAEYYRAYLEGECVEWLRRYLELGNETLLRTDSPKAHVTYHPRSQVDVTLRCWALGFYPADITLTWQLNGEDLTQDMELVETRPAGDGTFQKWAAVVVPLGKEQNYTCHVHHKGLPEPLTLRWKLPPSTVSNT
T1 chain 2: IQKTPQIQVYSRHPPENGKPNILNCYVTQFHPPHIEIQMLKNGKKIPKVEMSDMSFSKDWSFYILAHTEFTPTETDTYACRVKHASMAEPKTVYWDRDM

T2: H-2Db (mouse)
T2 chain 1: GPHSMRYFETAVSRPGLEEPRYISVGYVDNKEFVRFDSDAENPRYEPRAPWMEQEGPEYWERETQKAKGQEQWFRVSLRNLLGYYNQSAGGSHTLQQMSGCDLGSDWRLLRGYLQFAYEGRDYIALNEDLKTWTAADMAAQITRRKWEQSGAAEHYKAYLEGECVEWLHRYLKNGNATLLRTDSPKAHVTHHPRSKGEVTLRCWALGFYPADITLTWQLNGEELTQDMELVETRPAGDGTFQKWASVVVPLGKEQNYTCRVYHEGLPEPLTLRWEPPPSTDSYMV
T2 chain 2: T1 chain 2

T3: H-2Kb (mouse)
T3 chain 1: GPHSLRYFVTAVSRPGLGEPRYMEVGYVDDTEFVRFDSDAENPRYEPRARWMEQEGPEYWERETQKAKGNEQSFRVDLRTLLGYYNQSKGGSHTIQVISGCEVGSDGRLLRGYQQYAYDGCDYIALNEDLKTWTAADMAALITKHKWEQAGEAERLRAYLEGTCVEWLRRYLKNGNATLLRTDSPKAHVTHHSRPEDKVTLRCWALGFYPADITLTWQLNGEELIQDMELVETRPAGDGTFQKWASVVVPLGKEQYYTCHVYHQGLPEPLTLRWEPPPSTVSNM
T3 chain 2: T1 chain 2


Molecular target: T1, H-2Kd (mouse)
Test: competition
Conditions: modification not given

Binder	IC50
SYVNTNMGL [HBV core 116]	19 nM and 12 nM
AYANAKAAI [1114.05]	60 nM
SYLTLAKHTI [F078.18]	4.4 nM
SYVPSAEQIL [1081.06]	280 nM
SFFSSWQII [F078.07]	16 nM
AYAVAKAAI [1114.09]	42 nM
AYAGAKAAI [1114.07]	48 nM
HYISMGTSGL [14.0137]	83 nM
WYWGPSLYSI [HBV env 362]	16 nM and 8.3 nM
AYAEAKAAI [1114.03]	50 nM
HYYVSRDTL [F078.05]	43 nM
YYVSRDTLL [F078.06]	99 nM
AYAPAKAAI [1114.01]	3.5 nM
WYIPPSLRTL [F057.08]	96 nM
RYLENGKETL [1074.15]	80 nM

Molecular target: T2, H-2Db (mouse)
Test: competition
Conditions: modification not given

Binder	IC50
RNPRFYNL [1079.14]	> 44000 nM
FQPQNGQFIHFY [928.15]	280 nM
TGICNQNII [FluA NM 46]	21 nM and 13 nM
SIQFFGERAL [F079.03]	> 44000 nM
TALANTIEV [FluA POL1 141]	3.7 nM and 16 nM
AAAAYAAM [F079.05]	> 44000 nM
AAAAYAAAAM [F079.06]	> 44000 nM
SQVMNLHNL [F100.04]	2.3 nM
SSMHNALHI [16.0029]	7.6 nM
ASNENMDAM [1275.03]	28 nM
SIQFFGEL [F079.04]	> 44000 nM
RGPGRAFVTI [1087.01]	22000 nM
SHYAFSPM [F190.04]	> 88000 nM
AAAANAAAM [F079.08]	23 nM
KVPRNQDWL [F142.01]	38 nM
SGVENPGGYCL [928.07]	60 nM
FQPQNGQFI [LCMV NP 396]	4.9 nM and 6.9 nM and 17 nM
KQYLNLYPV [HBV pol 668]	3.4 nM

Molecular target: T3, H-2Kb (mouse)
Test: competition
Conditions: modification not given

Binder	IC50
RNPRFYNL [1079.14]	7.9 nM
IVTMFEAL [14.0008]	82 nM
FFYRYGFV [FluA POL1 495]	350 nM
SIQFFGERAL [F079.03]	21 nM
MNIQFTAV [FluA HA 403]	26 nM
VSYVNTNM [HBV core 115]	33 nM and 60 nM
LSYSAGAL [FluA M1 117]	60 nM and 31 nM
SVYDFYVWM [F138.03]	1.2 nM
VGLSYSQTM [14.0118]	71 nM
MGLKFRQL [HBV core 122]	7.4 nM and 6.3 nM
SSLPFQNI [FluA HA 305]	9.5 nM and 53 nM
KNKFFSYL [22.0011]	57 nM
MITQFESL [Flu NS 31]	42 nM and 64 nM
VYIEVLHL [FluA POL3 227]	75 nM and 21 nM
NAIVFKGL [17.0284]	484 nM
HMWNFIGV [1476.12]	202 nM
FAPGYNPAL [1275.04]	2 nM
MGLIYNRM [Flu M1 128]	16 nM and 9.9 nM
SVYDFFVWL [F117.14]	1 nM
LGYDYSYL [16.0004]	3.4 nM

Binder	IC50
RFYRTCKL [FluA POL1 465]	47 nM
LAVLYCLL [22.0012]	72 nM
VSAAFYHL [HBV pol 419]	5.2 nM and 7 nM
IGRFYIQM [FluA NP 36]	24 nM and 42 nM
YMVPFIPL [22.0021]	70 nM
ASARFSWL [HBV env 329]	323 nM and 49 nM
SIQFFGEL [F079.04]	16 nM
ANFSFRNTL [16.0031]	6 nM
RGPGRAFVTI [1087.01]	31000 nM
VYINTALL [FluA POL2 463]	14 nM and 65 nM
SHYAFSPM [F190.04]	250 nM
AAAANAAAM [F079.08]	11000 nM
KMITQRTI [FluA POL1 198]	300 nM
GVYQFKSV [14.0018]	11 nM
SGVENPGGYCL [928.07]	> 31000 nM
RTFSFQLI [Flu NS 114]	26 nM and 27 nM
FQPQNGQFI [LCMV NP 396]	> 31000 nM and 9510 nM
AAAAAANAAAM [F079.09]	31000 nM
ISHNFCNL [14.0011]	411 nM
